Experiment in all cases: cell-based or functional assay
For assay [1], the target named is T1, GPR10 (UniProt P49683 1-370, limits assumed).
T1 sequence (looked up): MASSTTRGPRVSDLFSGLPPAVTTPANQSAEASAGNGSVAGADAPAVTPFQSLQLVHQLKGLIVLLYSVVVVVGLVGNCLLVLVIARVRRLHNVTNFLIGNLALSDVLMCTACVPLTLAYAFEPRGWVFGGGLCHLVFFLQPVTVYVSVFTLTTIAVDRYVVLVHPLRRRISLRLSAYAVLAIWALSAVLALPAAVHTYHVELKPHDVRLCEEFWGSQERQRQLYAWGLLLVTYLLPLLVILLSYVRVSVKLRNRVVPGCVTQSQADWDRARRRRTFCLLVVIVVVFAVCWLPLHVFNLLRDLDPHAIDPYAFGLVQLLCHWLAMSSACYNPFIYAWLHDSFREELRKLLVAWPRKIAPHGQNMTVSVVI

Assay [2] has as its target T1, GPR10. This is another data set of the same source.
The target of assay [3] is human GLP-1R (human, UniProt P43220 24-463).
In assay [4] the target is T2, human GIPR (human, UniProt P48546 22-466).
T2 sequence (looked up): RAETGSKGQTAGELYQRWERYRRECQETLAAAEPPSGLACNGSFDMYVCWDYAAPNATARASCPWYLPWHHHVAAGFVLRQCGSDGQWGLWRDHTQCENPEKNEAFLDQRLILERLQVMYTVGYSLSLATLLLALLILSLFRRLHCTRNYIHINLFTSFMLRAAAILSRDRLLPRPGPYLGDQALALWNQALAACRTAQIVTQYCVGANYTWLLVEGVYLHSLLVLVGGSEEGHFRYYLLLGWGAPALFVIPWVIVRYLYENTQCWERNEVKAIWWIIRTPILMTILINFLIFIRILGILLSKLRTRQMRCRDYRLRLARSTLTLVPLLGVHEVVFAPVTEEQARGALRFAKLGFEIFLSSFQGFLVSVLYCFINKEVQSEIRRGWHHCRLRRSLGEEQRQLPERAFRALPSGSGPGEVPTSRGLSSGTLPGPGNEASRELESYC

Where two headings read alike, the source gives them in different places. Bridges are numbered along the chain shown (N, C = ends). Where no end group is shown, it is not given here. [ ]: non-standard residue; d: D form. NMeR = CN[C@@H](CCCNC(=N)N)C(=O)O; hArg = N=C(N)NCCCC[C@H](N)C(=O)O; β3hR = N=C(N)NCCC[C@H](N)CC(=O)O; staple K20 = not defined here; staple K4 = not defined here; staple K6 = not defined here; staple K7 = not defined here; staple K8 = not defined here; staple K9 = not defined here; Nle = CCCC[C@H](N)C(=O)O; L1 = not defined here; L3 = not defined here; L4 = not defined here; L5 = not defined here; Aib = CC(C)(N)C(=O)O

For SRAHQCS[Nle]ETRTCDINPAWYTG[NMeR]GIRPVGRF-NH2 (linker 6-13 via L1; reading uncertain) [Conjugate 253], the “GPR10 EC50” value in assay [1] was 34 nM. As to SRAHQCS[Nle]ETRTCDINPAWYTG[NMeR]GIRPVGRF-NH2 (linker 6-13 via L3; reading uncertain) [Conjugate 257], the “GPR10 EC50” value in assay [1] stood at 8.8 nM. Same read-out and setting: in the case of SRAHQCS[Nle]ETRTCDINPAWYTG[NMeR]GIRPVGRF-NH2 (linker 6-13 via L4; reading uncertain) [Conjugate 261] it was 120 nM. For the molecule SRAHQCS[Nle]ETRTCDINPAWYTGRGIRPVG[NMeR]F-NH2 (cysteine pairing not given here) [SEQ ID NO 102], in assay [1], the “GPR10 EC50” value was 100 nM. As to SRAHQCSMETRTCDINPAWYTGRGIRPVGRF-NH2 (linker 6-13 via L5; reading uncertain) [Conjugate 238], the “GPR10 EC50” value in assay [2] and in assay [1] was 260 nM in each case. In the case of SRAHQCS[Nle]ETRTCDINPAWYTGRGIRPVG[NMeR]F-NH2 (linker 6-13 via L5; reading uncertain) [Conjugate 266], the “GPR10 EC50” value in assay [1] was 1100 nM. As for Y[Aib]EGTFTSDYSIYLDKKAA[Aib]EFVKWLLAGGPSSGAPPPS (linker 17-24 via staple K6; reading uncertain) [Conjugate 147], the “EC50 cAMP 0% FBS” value is 0.07 nM in assay [3] and 0.02 nM in assay [4]. Take SRAHQCS[Nle]ETRTCDINPAWYTGRGIRPVG[NMeR]F-NH2 (linker 6-13 via L1; reading uncertain) [Conjugate 254]: in assay [1], the “GPR10 EC50” value turned out to be 100 nM. Regarding YXEGTFTSDYSIYLDKKAAXEFVKWLLAGGPSSGAPPPS (staple K5 on Lys 17, 24; Aib 2, 20) [Conjugate 139], the entries for the “EC50 cAMP 0% FBS” value in assay [3] and in assay [4] were 0.061 nM and 0.0026 nM, respectively. For YXEGTFTSDYSIYLDKKAAXEFVKWLLAGGPSSGAPPPS (staple K4 on Lys 17, 24; Aib 2, 20) [Conjugate 140], the “EC50 cAMP 0% FBS” value in assay [3] worked out at 0.034 nM; in assay [4], 0.0028 nM. Consider SRAHQCS[Nle]ETRTCDINPAWYTG[NMeR]GIRPVGRF-NH2 (linker 6-13 via L5; reading uncertain) [Conjugate 265], for which the “GPR10 EC50” value in assay [1] turned out to be 160 nM.

Consider Y[Aib]EGTFTSDYSIYKDKQAA[Aib]KFVNWLLAGGPSSGAPPPS (linker 14-21 via staple K9; reading uncertain) [Conjugate 144], for which the “EC50 cAMP 0% FBS” value in assay [3] came out at 0.012 nM; in assay [4] it was 0.0022 nM. For SRAHQCSMETRTCDINPAWYTGRGIRPVGRF-NH2 (cysteine pairing not given here) [SEQ ID NO 90], the “GPR10 EC50” value in assay [2] and in assay [1] was 29 nM in each case.

With SRAHQCS[Nle]ETRTCDINPAWYTGRGIRPVG[β3hR]F-NH2 (cysteine pairing not given here) [SEQ ID NO 101], the “GPR10 EC50” value in assay [1] is greater than 200 nM.

Regarding SRAHQCS[Nle]ETRTCDINPAWYTGRGIRPVG[NMeR]F-NH2 (linker 6-13 via L4; reading uncertain) [Conjugate 262], in assay [1], the “GPR10 EC50” value turned out to be 280 nM.

Turning to SRAHQCS[Nle]ETRTCDINPAWYTGRGIRPVG[hArg]F-NH2 (cysteine pairing not given here) [SEQ ID NO 100], in assay [1], the “GPR10 EC50” value was greater than 200 nM.

Turning to Y[Aib]EGTFTSDYSIYLDKKAA[Aib]EFVKWLLAGGPSSGAPPPS (linker 17-24 via staple K20; reading uncertain) [Conjugate 149], the “EC50 cAMP 0% FBS” value in assay [3] came to 0.05 nM; in assay [4] it was 0.01 nM. With SRAHQCS[Nle]ETRTCDINPAWYTG[β3hR]GIRPVGRF-NH2 (linker 6-13 via L5; reading uncertain) [Conjugate 264], the “GPR10 EC50” value in assay [1] came out at 81 nM. Turning to SRAHQCS[Nle]ETRTCDINPAWYTGRGIRPVG[NMeR]F-NH2 (linker 6-13 via L3; reading uncertain) [Conjugate 258], the “GPR10 EC50” value in assay [1] was determined as 10 nM. Take SRAHQCSMETRTCDINPAWYTGRGIRPVGRF-NH2 (linker 6-13 via L1; reading uncertain) [Conjugate 226]: the “GPR10 EC50” value in assay [2] and in assay [1] was 20 nM in each case. Y[Aib]EGTFTSDYSIYKDKQAA[Aib]KFKNWLKAGGPSSGAPPPS (linker 23-27 via staple K20; reading uncertain) [Conjugate 157]: in assay [3], the “EC50 cAMP 0% FBS” value amounted to 16.4 nM. Consider SRAHQCS[Nle]ETRTCDINPAWYTG[β3hR]GIRPVGRF-NH2 (linker 6-13 via L4; reading uncertain) [Conjugate 260], for which the “GPR10 EC50” value in assay [1] stood at 60 nM.

For SRAHQHSMETRTPDINPAWYTGRGIRPVGRF-NH2 [SEQ ID NO 107], the “GPR10 EC50” value in assay [2] and in assay [1] was 12 nM in each case. For Y[Aib]EGTFTSDYSIYLDKKAA[Aib]EFVKWLLAGGPSSGAPPPS (linker 17-24 via staple K7; reading uncertain) [Conjugate 150], the “EC50 cAMP 0% FBS” value was 0.06 nM in assay [3] and 0.02 nM in assay [4]. Consider Y[Aib]EGTFTSDYSIYKDKQAA[Aib]KFVNWLLAGGPSSGAPPPS (linker 14-21 via staple K8; not fully specified; reading uncertain) [Conjugate 152], for which the “EC50 cAMP 0% FBS” value in assay [4] was 0.05 nM. In the case of SRAHQCSMETRTCDINPAWYTGRGIRPVGRF-NH2 (linker 6-13 via L3; reading uncertain) [Conjugate 236], the “GPR10 EC50” value in assay [2] and in assay [1] was 13 nM each time.

As to Y[Aib]EGTFTSDYSIYKDKQAA[Aib]KFKNWLKAGGPSSGAPPPS (linker 23-27 via staple K4; not fully specified; reading uncertain) [Conjugate 145], the “EC50 cAMP 0% FBS” value in assay [3] amounted to 61.4 nM. Take SRAHQCSMETRTCDINPAWYTGRGIRPVGRF-NH2 (linker 6-13 via L4; reading uncertain) [Conjugate 237]: the “GPR10 EC50” value in assay [2] and in assay [1] was 80 nM throughout. For SRAHQCS[Nle]ETRTCDINPAWYTG[NMeR]GIRPVGRF-NH2 (cysteine pairing not given here) [SEQ ID NO 99], the “GPR10 EC50” value in assay [1] was determined as 44 nM. As for Y[Aib]EGTFTSDYSIYLDKKAQ[Aib]AFVKWLIAQGPSSGAPPPS (linker 17-24 via staple K4; reading uncertain) [Conjugate 146], the “EC50 cAMP 0% FBS” value came out at 0.11 nM in assay [3] and 0.03 nM in assay [4].

On to Y[Aib]EGTFTSDYSIYLDKKAA[Aib]EFVKWLLAGGPSSGAPPPS (linker 17-24 via staple K8; reading uncertain) [Conjugate 148], for which the “EC50 cAMP 0% FBS” value stood at 0.46 nM in assay [3] and 0.03 nM in assay [4]. On to Y[Aib]EGTFTSDYSIYLDKKAA[Aib]EFVKWLLAGGPSSGAPPPS (linker 17-24 via staple K9; reading uncertain) [Conjugate 143], for which the results for the “EC50 cAMP 0% FBS” value in assay [3] and in assay [4] were 0.068 nM and 0.002 nM, respectively.
